According to paper PMC5149022, “A ^99mTc-tricine-HYNIC-labeled Peptide Targeting the Melanocortin-1 Receptor for Melanoma Imaging” (Iranian Journal of Pharmaceutical Research : IJPR, 2016):
Bridge positions count the residues as written; N and C are the ends. Square brackets hold non-standard residues; d marks the D form. Peptide text beside a SMILES is read from it. * marks the point of attachment. HYNIC = NNc1ccc(C(=O)*)cn1; Nle = CCCC[C@H](N)C(=O)O; GABA = NCCCC(=O)O

What was measured:
[1] = Stability of radiolabeled peptide in human serum; type: in vitro ADME; conditions: fresh human serum, 37 °C, RP-HPLC with gamma detector
Experimental: (§1) The stability of radiolabeled peptide in aqueous solution was evaluated by incubation of the reaction mixture at ambient temperature (25 °C) up to 24 h. Stability in human serum at 37 °C was tested in parallel after adding 100 μL of reaction mixture to 1mL of fresh human serum. The incubation mixtures were sampled at 1,6 and 24 h time points. Serum samples (100–200 μL) were treated with ethanol (200–400 μL) and centrifuged (4000 g, 5 min, 4 °C) to precipitate the serum proteins.20–100 μL aliquots from the supernatant were separated to assess the degradation of ^99mTc labeled peptide by RP-HPLC. 100 μL aliquots from the 25 °C incubated mixture were passed from a 0.22 μ filter to eliminate the probable ^99mTc colloids and then, 5–20 μL of filtrate were analyzed by RP-HPLC as well.

[2] = Stability of radiolabeled peptide in aqueous solution; type: physicochemical
Experimental: as §1

[3] = Protein binding by precipitation method; type: in vitro ADME
Experimental: Protein binding of radiolabeled peptide was measured by precipitationmethod resulting 37%forradioconjugate. Plasma proteins binding could be due to transchelation, which is possible with exchange reactions among co-ligands and the possible action of HYNIC as a mono- or bi-dentated ligand complexing ^99mTc.

[4] = test system: B16/F10 tumor (MC1 receptor); assay: Biodistribution in B16/F10 tumor bearing nude mice; type: in vivo; conditions: nude mice with B16/F10 tumor
Experimental: Animal experiments were performed in compliance with the regulations of our institution and with generally accepted guidelines governing such work.Groups of three nude mice were used in each experiment. A suspension of B16/F10 cells (1×10^7) in PBS was subcutaneously injected in the right flank of each nude mice. Seven days after inoculation, the tumors were inducted and then, ^99mTc-tricine-HYNIC-peptide (20 MBq) was injected via a femoral vein. Also a group of three animals were injected with peptide ([…]) in saline (0.9%; […]) as a co-injection with the radiopeptide (blocked animals). After 1, 4 and 24 h, the groups of mice were killed, then the organs of interest were excised, weighed and counted in the gamma counter. The percentage of the injected dose per gram (% ID/g) was calculated for each tissue. At 4 h after injection, accumulation of the tracer in tumor area was also assessed by planar scintigraphy under ether anesthesia.

## CCCC[C@H](NC(=O)CCCNC(=O)c1ccc(NN)nc1)C(=O)N[C@H]1CC(=O)NCCCC[C@@H](C(N)=O)NC(=O)CNC(=O)[C@H](Cc2c[nH]c3ccccc23)NC(=O)[C@H](CCCNC(=N)N)NC(=O)[C@@H](Cc2ccccc2)NC(=O)[C@H](Cc2c[nH]cn2)NC1=O [^99mTc-tricine-HYNIC-peptide, ^99mTc-tricine-HYNIC-GABANle-CycMSHhept, metal not drawn] ({HYNIC-GABA}-[Nle]DH[dF]RWGK-NH2; lactam 2-8)
[1]; 24 h
  labeling yield remaining after incubation in human serum: 75%
[1]; 100 μL reaction mixture in 1 mL serum, up to 6 h, ethanol precipitation
  stability in human serum (release of 99mTcO4- or peptide degradation): no significant release of ^99mTcO4^− or peptide degradation
[2]; reaction mixture, ambient temperature (25 °C), 24 h, RP-HPLC with gamma detector
  labeling yield remaining after incubation in aqueous solution: 75%
[2]; reaction mixture, ambient temperature (25 °C), up to 6 h, 0.22 μ filtered, RP-HPLC with gamma detector
  stability in aqueous solution (release of 99mTcO4- or peptide degradation): no significant release of ^99mTcO4^− or peptide degradation
[2]; up to 6 h post labeling
  radiochemical stability: excellent radiochemical stability
[3]
  protein binding: 37%
[4]; 20 MBq via femoral vein, 1 h after injection, n = 3
  kidneys uptake: 7.38 ± 0.56 % ID/g
[4]; 20 MBq via femoral vein, 4 h, n = 3
  tumor uptake: 4.51 ± 0.11 % ID/g
[4]; 1 h, n = 3
  blood uptake: 1.26 ± 0.13 % ID/g
  intestines uptake: 0.65±0.05 % ID/g
  liver uptake: 1.48 ± 0.08 % ID/g
[4]; co-injection of cold peptide, time not stated
  tumor uptake, blocked group: 2.33 % ID/g
[4]; time not stated
  liver uptake: lower than 2.0 % ID/g
